Reference: article doi:10.1101/639948 (bioRxiv, 2019)

B1: Sam50 (natural protein)
chain: MGTVHARSLEPLPSSGTDFGALGEEAEFVEVEPEAKQEILENKDVVVQHVHFDGLGRTKDDIIICEIGEVFKAKNLIEVMRRSHEAREKLLRLGIFRQVDVLIDTCHGEDALPNGLDVTFEVTELRRLTGSYNTMVGNNEGSMVLGLKLPNLLGRAEKVTFQFSYGTKETSYGLSFFKPQPGNFERNFSVNLYKVTGQFPWSSLRETDRGVSAEYSFPLWKTSHTVKWEGVWRELGCLSRTASFAVRKESGHSLKSSLSHAMVIDSRNSSILPRRGALFKVNQELAGYTGGDVSFIKEDFELQLNKPLALDSVFSTSLWGGMLVPIGDKPSSIADRFYLGGPTSVRGFSMHSIGPQSEGDYLGGEAYWAGGLHLYTPLPFRPGQGGFGELFRTHFFLNAGNLCNLNYGEGPKAHIRKLAECIRWSYGAGVVLRLGNIARLELNYCIPMGVQGGDRICDGVQFGAGIRFL
B2: Mic19/CHCHD3 (natural protein)
chain: MGGTASTRRVTFEADENENITVVKGIRLSENVIDRMKESSPSGSKSQRYSSVYGASVSDEDLKRRVAEELALEQAKKESEHQRRLKQARDLERERAAANEQLTRAVLRERISSEEERMKAKHLARQLEEKDRVMRKQDAFYKEQLARLEERSSEFYKVTTEEYQKAAEEVEAKFKRYEYHPVCADLQTKILQCYRQNTQQTLSCSALASQYMHCVNHAKQSMLEKGG

Biological target: native Miro2 (UniProt Q8JZN7 1-620)
Test: proximity ligation

Chain of native Miro2 (Q8JZN7 whole entry): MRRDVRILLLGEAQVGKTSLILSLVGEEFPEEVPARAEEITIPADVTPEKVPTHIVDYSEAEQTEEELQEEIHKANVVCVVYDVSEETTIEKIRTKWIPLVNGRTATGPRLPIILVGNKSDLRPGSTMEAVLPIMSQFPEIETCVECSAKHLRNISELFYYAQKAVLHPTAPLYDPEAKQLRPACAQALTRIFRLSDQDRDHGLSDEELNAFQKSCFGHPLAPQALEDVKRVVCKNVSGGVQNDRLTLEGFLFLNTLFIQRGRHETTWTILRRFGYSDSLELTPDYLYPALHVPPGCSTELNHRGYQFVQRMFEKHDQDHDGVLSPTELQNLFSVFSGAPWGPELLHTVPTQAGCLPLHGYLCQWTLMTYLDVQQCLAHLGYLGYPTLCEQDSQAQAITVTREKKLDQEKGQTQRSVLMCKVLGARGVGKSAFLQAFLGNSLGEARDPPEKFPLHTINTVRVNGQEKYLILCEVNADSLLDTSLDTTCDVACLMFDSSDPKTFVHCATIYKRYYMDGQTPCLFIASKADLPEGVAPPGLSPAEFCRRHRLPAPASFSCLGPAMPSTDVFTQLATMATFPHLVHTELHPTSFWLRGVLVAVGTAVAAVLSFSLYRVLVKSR

Row | Binder | fold enrichment of PLA signal over single antibodies [fold]
1 | B1 | 4
2 | B2 | 4
